Patent US20200002421A1 (AbbVie / Abbott, published 2020)

T1: Human full length B7-H3 (human, UniProt Q5ZPR3 29-534)
T1 sequence: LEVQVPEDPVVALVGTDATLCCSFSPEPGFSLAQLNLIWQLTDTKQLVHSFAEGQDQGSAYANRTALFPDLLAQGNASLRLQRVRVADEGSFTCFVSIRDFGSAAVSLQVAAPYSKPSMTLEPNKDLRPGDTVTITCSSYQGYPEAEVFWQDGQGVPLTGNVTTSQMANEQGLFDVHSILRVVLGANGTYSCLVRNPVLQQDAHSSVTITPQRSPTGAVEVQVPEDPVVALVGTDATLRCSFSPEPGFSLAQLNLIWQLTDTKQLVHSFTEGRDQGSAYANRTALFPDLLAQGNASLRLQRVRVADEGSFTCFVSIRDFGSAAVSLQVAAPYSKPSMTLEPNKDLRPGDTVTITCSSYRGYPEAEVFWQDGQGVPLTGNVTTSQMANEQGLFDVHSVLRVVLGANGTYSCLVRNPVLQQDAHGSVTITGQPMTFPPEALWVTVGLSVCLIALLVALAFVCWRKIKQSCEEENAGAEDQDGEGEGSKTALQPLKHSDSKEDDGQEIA

B1: huAb3v2.5-CZ (antibody, human IgG1, kappa, L234A L235A, V domains shown)
VH: EVQLVQSGAEVKKPGSSVKVSCKASGYTFSSYWMHWVRQAPGQGLEWIGLIHPESGSTNYNEMFKNRATLTVDRSTSTAYMELSSLRSEDTAVYYCAGGGRLYFDYWGQGTTVTVSS
VL: DIVMTQSPLSLPVTPGEPASISCRSSQSLVHSNRDTYLRWYLQKPGQSPQLLIYKVSNRFSGVPDRFSGSGSGTDFTLKISRVEAEDVGVYYCSQSTHVPYTFGGGTKVEIKR
modifications: synthon CZ on interchain Cys
B2: huAb3v2.5-TV (antibody, human IgG1, kappa, L234A L235A, V domains shown)
VH: EVQLVQSGAEVKKPGSSVKVSCKASGYTFSSYWMHWVRQAPGQGLEWIGLIHPESGSTNYNEMFKNRATLTVDRSTSTAYMELSSLRSEDTAVYYCAGGGRLYFDYWGQGTTVTVSS
VL: DIVMTQSPLSLPVTPGEPASISCRSSQSLVHSNRDTYLRWYLQKPGQSPQLLIYKVSNRFSGVPDRFSGSGSGTDFTLKISRVEAEDVGVYYCSQSTHVPYTFGGGTKVEIKR
modifications: synthon TV on interchain Cys
B3: huAb3v2.5-AAD (antibody, human IgG1, kappa, L234A L235A, V domains shown)
VH: EVQLVQSGAEVKKPGSSVKVSCKASGYTFSSYWMHWVRQAPGQGLEWIGLIHPESGSTNYNEMFKNRATLTVDRSTSTAYMELSSLRSEDTAVYYCAGGGRLYFDYWGQGTTVTVSS
VL: DIVMTQSPLSLPVTPGEPASISCRSSQSLVHSNRDTYLRWYLQKPGQSPQLLIYKVSNRFSGVPDRFSGSGSGTDFTLKISRVEAEDVGVYYCSQSTHVPYTFGGGTKVEIKR
modifications: synthon AAD on interchain Cys
B4: huAb3v2.5-AAA (antibody, human IgG1, kappa, L234A L235A, V domains shown)
VH: EVQLVQSGAEVKKPGSSVKVSCKASGYTFSSYWMHWVRQAPGQGLEWIGLIHPESGSTNYNEMFKNRATLTVDRSTSTAYMELSSLRSEDTAVYYCAGGGRLYFDYWGQGTTVTVSS
VL: DIVMTQSPLSLPVTPGEPASISCRSSQSLVHSNRDTYLRWYLQKPGQSPQLLIYKVSNRFSGVPDRFSGSGSGTDFTLKISRVEAEDVGVYYCSQSTHVPYTFGGGTKVEIKR
modifications: synthon AAA on interchain Cys
B5: huAb3v2.5-LB (antibody, human IgG1, kappa, L234A L235A, V domains shown)
VH: EVQLVQSGAEVKKPGSSVKVSCKASGYTFSSYWMHWVRQAPGQGLEWIGLIHPESGSTNYNEMFKNRATLTVDRSTSTAYMELSSLRSEDTAVYYCAGGGRLYFDYWGQGTTVTVSS
VL: DIVMTQSPLSLPVTPGEPASISCRSSQSLVHSNRDTYLRWYLQKPGQSPQLLIYKVSNRFSGVPDRFSGSGSGTDFTLKISRVEAEDVGVYYCSQSTHVPYTFGGGTKVEIKR
modifications: synthon LB on interchain Cys
B6: huAb3v2.5-TX (antibody, human IgG1, kappa, L234A L235A, V domains shown)
VH: EVQLVQSGAEVKKPGSSVKVSCKASGYTFSSYWMHWVRQAPGQGLEWIGLIHPESGSTNYNEMFKNRATLTVDRSTSTAYMELSSLRSEDTAVYYCAGGGRLYFDYWGQGTTVTVSS
VL: DIVMTQSPLSLPVTPGEPASISCRSSQSLVHSNRDTYLRWYLQKPGQSPQLLIYKVSNRFSGVPDRFSGSGSGTDFTLKISRVEAEDVGVYYCSQSTHVPYTFGGGTKVEIKR
modifications: synthon TX on interchain Cys
B7: huAb3v2.5-WD (antibody, human IgG1, kappa, L234A L235A, V domains shown)
VH: EVQLVQSGAEVKKPGSSVKVSCKASGYTFSSYWMHWVRQAPGQGLEWIGLIHPESGSTNYNEMFKNRATLTVDRSTSTAYMELSSLRSEDTAVYYCAGGGRLYFDYWGQGTTVTVSS
VL: DIVMTQSPLSLPVTPGEPASISCRSSQSLVHSNRDTYLRWYLQKPGQSPQLLIYKVSNRFSGVPDRFSGSGSGTDFTLKISRVEAEDVGVYYCSQSTHVPYTFGGGTKVEIKR
modifications: synthon WD on interchain Cys
B8: huAb3v2.5-YY (antibody, human IgG1, kappa, L234A L235A, V domains shown)
VH: EVQLVQSGAEVKKPGSSVKVSCKASGYTFSSYWMHWVRQAPGQGLEWIGLIHPESGSTNYNEMFKNRATLTVDRSTSTAYMELSSLRSEDTAVYYCAGGGRLYFDYWGQGTTVTVSS
VL: DIVMTQSPLSLPVTPGEPASISCRSSQSLVHSNRDTYLRWYLQKPGQSPQLLIYKVSNRFSGVPDRFSGSGSGTDFTLKISRVEAEDVGVYYCSQSTHVPYTFGGGTKVEIKR
modifications: synthon YY on interchain Cys
B9: huAb13v1-CZ (antibody, human IgG1, kappa, L234A L235A, V domains shown)
VH: EVQLQESGPGLVKPSETLSLTCAVTGYSITSGYSWHWIRQFPGNGLEWMGYIHSSGSTNYNPSLKSRISISRDTSKNQFFLKLSSVTAADTAVYYCAGYDDYFEYWGQGTTVTVSS
VL: DIQMTQSPSSLSASVGDRVTITCKASQNVGFNVAWYQQKPGKSPKALIYSASYRYSGVPSRFSGSGSGTDFTLTISSLQPEDFAEYFCQQYNWYPFTFGQGTKLEIKR
modifications: synthon CZ on interchain Cys
B10: huAb13v1-SR (antibody, human IgG1, kappa, L234A L235A, V domains shown)
VH: EVQLQESGPGLVKPSETLSLTCAVTGYSITSGYSWHWIRQFPGNGLEWMGYIHSSGSTNYNPSLKSRISISRDTSKNQFFLKLSSVTAADTAVYYCAGYDDYFEYWGQGTTVTVSS
VL: DIQMTQSPSSLSASVGDRVTITCKASQNVGFNVAWYQQKPGKSPKALIYSASYRYSGVPSRFSGSGSGTDFTLTISSLQPEDFAEYFCQQYNWYPFTFGQGTKLEIKR
modifications: synthon SR on interchain Cys
B11: huAb13v1-SE (antibody, human IgG1, kappa, L234A L235A, V domains shown)
VH: EVQLQESGPGLVKPSETLSLTCAVTGYSITSGYSWHWIRQFPGNGLEWMGYIHSSGSTNYNPSLKSRISISRDTSKNQFFLKLSSVTAADTAVYYCAGYDDYFEYWGQGTTVTVSS
VL: DIQMTQSPSSLSASVGDRVTITCKASQNVGFNVAWYQQKPGKSPKALIYSASYRYSGVPSRFSGSGSGTDFTLTISSLQPEDFAEYFCQQYNWYPFTFGQGTKLEIKR
modifications: synthon SE on interchain Cys
B12: huAb13v1-XW (antibody, human IgG1, kappa, L234A L235A, V domains shown)
VH: EVQLQESGPGLVKPSETLSLTCAVTGYSITSGYSWHWIRQFPGNGLEWMGYIHSSGSTNYNPSLKSRISISRDTSKNQFFLKLSSVTAADTAVYYCAGYDDYFEYWGQGTTVTVSS
VL: DIQMTQSPSSLSASVGDRVTITCKASQNVGFNVAWYQQKPGKSPKALIYSASYRYSGVPSRFSGSGSGTDFTLTISSLQPEDFAEYFCQQYNWYPFTFGQGTKLEIKR
modifications: synthon XW on interchain Cys
B13: huAb13v1-YG (antibody, human IgG1, kappa, L234A L235A, V domains shown)
VH: EVQLQESGPGLVKPSETLSLTCAVTGYSITSGYSWHWIRQFPGNGLEWMGYIHSSGSTNYNPSLKSRISISRDTSKNQFFLKLSSVTAADTAVYYCAGYDDYFEYWGQGTTVTVSS
VL: DIQMTQSPSSLSASVGDRVTITCKASQNVGFNVAWYQQKPGKSPKALIYSASYRYSGVPSRFSGSGSGTDFTLTISSLQPEDFAEYFCQQYNWYPFTFGQGTKLEIKR
modifications: synthon YG on interchain Cys
B14: huAb13v1-TX (antibody, human IgG1, kappa, L234A L235A, V domains shown)
VH: EVQLQESGPGLVKPSETLSLTCAVTGYSITSGYSWHWIRQFPGNGLEWMGYIHSSGSTNYNPSLKSRISISRDTSKNQFFLKLSSVTAADTAVYYCAGYDDYFEYWGQGTTVTVSS
VL: DIQMTQSPSSLSASVGDRVTITCKASQNVGFNVAWYQQKPGKSPKALIYSASYRYSGVPSRFSGSGSGTDFTLTISSLQPEDFAEYFCQQYNWYPFTFGQGTKLEIKR
modifications: synthon TX on interchain Cys
B15: huAb13v1-KZ (antibody, human IgG1, kappa, L234A L235A, V domains shown)
VH: EVQLQESGPGLVKPSETLSLTCAVTGYSITSGYSWHWIRQFPGNGLEWMGYIHSSGSTNYNPSLKSRISISRDTSKNQFFLKLSSVTAADTAVYYCAGYDDYFEYWGQGTTVTVSS
VL: DIQMTQSPSSLSASVGDRVTITCKASQNVGFNVAWYQQKPGKSPKALIYSASYRYSGVPSRFSGSGSGTDFTLTISSLQPEDFAEYFCQQYNWYPFTFGQGTKLEIKR
modifications: synthon KZ on interchain Cys

molecular target: T1, Human full length B7-H3; test: cell-based or functional assay

Row | Binder | EC50 nM H1650 (in vitro tumor cell cytotoxicity) [nM]
1 | B1 | 0.4
2 | B2 | 0.53
3 | B3 | 0.49
4 | B4 | 0.85
5 | B5 | 2.59
6 | B6 | 0.62
7 | B7 | 0.83
8 | B8 | 0.71
9 | B9 | 0.18
10 | B10 | 0.59
11 | B11 | 0.63
12 | B12 | 0.86
13 | B13 | 0.33
14 | B14 | 0.22
15 | B15 | 179
